Here are results for six molecules from patent US20150203579A1 (Regeneron, published 2015).

The labels stand for the following.
T1: monkey PD-1 with mFc (monkey)
T1 construct: also called monkey PD-1-mFc; monkey PD-1 dimer
T1 chain: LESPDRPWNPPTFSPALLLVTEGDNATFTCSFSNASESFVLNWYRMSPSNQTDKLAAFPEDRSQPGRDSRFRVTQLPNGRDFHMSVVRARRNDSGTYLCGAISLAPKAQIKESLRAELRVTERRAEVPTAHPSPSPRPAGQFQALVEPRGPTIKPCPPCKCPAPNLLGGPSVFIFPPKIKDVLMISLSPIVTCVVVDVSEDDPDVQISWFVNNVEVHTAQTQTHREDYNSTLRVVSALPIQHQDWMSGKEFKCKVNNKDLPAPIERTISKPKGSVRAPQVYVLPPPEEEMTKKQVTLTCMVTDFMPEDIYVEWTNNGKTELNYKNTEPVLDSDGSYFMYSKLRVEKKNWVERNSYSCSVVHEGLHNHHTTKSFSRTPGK

B1: H4xH9048P2 (antibody, V domains shown)
VH: QVQLVQSGAEVKRPGSSVKVSCKVSGVTFRNFAIIWVRQAPGQGLEWMGGIIPFFSAANYAQSFQGRVTITPDESTSTAFMELASLRSEDTAVYYCAREGERGHTYGFDYWGQGTLVTVSS
VL: not shown
notes: human IgG4 Fc with 2 or more amino acid changes (US20100331527)
B2: H4xH9034P (antibody, V domains shown)
VH: EVQLVESGGGVVRPGGSLRLSCTASGFTFDDYGMSWVRQAPGKGLEWISGIGWTGGRSSYADSVRGRFTISRDNAKNSLYLQMNSLGAEDTALYYCARDRQWLVQWYFDYWGQGTLVTVSS
VL: not shown
notes: human IgG4 Fc with 2 or more amino acid changes (US20100331527); also called H4xH9034P2
B3: H4xH9119P2 (antibody, V domains shown)
VH: EVQLVESGGGLVQPGRSLRLSCAASGFTFEDYAMHWVRQAPGKGLEWVSGIGWSNVKIGYADSVKGRFTISRDNVRNSLYLQMNSLRTEDTAFYYCVKAYTSMLTLYFDYWGQGTLVTVSS
VL: not shown
notes: as for B1
B4: H2aM7788N (antibody, V domains shown)
VH: EVQLVESGGGLVQPGGSLRLSCGASGFTFRNYDMHWVRQITGKGLEWVSAIGSAGDTYYPDSVKGRFTISRENAKNSLYLQMNSLRVGDTAVYYCTRDIHCSSTRCYGMDVWGQGTTVTVSS
VL: not shown
notes: human variable regions, mouse IgG2a Fc; also called H2M7788N
B5: H4xH9035P (antibody, V domains shown)
VH: EVQLVESGGRVVRPGGSLRLSCAASGFTFDDYGMSWVRQLPGKGLEWVAGISWNDGKTVYAESVKGRFIISRDNAKNSLHLEMNSLRAEDTALYYCARDWQYLIDRYFDFWGQGTLVTVSS
VL: not shown
notes: human IgG4 Fc with 2 or more amino acid changes (US20100331527); also called H4xH9035P2
B6: H2aM7796N (antibody, V domains shown)
VH: QVQLVESGGGVVQPGRSLRLSCAASGFTFSSYGMHWVRQAPGKGLEWVAIIWSDGDSEYNLDSVKGRFTISRDNSKNTLYLQMNSLRVEDSAVYYCARDRDLEDIWGQGTMVTVSS
VL: DIQMTQSPSSLSASVGDRVTITCRASQGIRNDLGWYQQKPGKAPKRLIYAASNLQSGVPSRFSGSGSGTEFTLTISSLQPEDFATYYCLQHNSYPLTFGGGTKVEIK
notes: human variable regions, mouse IgG2a Fc; also called H2M7796N

The target in the first assay is T2, full length human PD-1 on HEK293/hPD-1 cells (human, UniProt Q15116 25-288). Description: FACS dose response, HEK293/hPD-1 cells.
Consider B1, for which the EC50 stood at 0.668 nM and the “Max Geom. Mean MFI @ 100 nM” value stood at 33700 MFI.

Consider B2, for which the response was half-maximal at 0.209 nM (EC50) and the “Max Geom. Mean MFI @ 100 nM” value is 32400 MFI.

Take B3: the EC50 came out at 0.348 nM and the “Max Geom. Mean MFI @ 100 nM” value turned out to be 37800 MFI.

As for B4, the half-maximal effective concentration (EC50) was 0.321 nM and the “Max Geom. Mean MFI @ 100 nM” value is 14800 MFI.

As for B5, the EC50 was 0.115 nM and the “Max Geom. Mean MFI @ 100 nM” value was 28700 MFI.

The target of another assay is T3, recombinant human PD-1 dimer expressed with a C-terminal mouse IgG2a Fc tag (human).
T3 construct: also called hPD-1-mFc
Description: BLI Octet: 100 nM hPD-1-mFc + 500 nM mAb to captured hPD-L1-hFc. (BLI is a label-free optical method that tracks binding on a fibre tip over time.)
Regarding B6, the “% Blocking” value stood at 129% and the “binding of the mixture (nm)” value is -0.02 nm.

As for B4, the “% Blocking” value worked out at 100% and the “binding of the mixture (nm)” value came out at 0 nm.

The next assay has as its target T3, recombinant human PD-1 dimer expressed …. Description: competition ELISA: 1.5 nM hPD-1-mFc to coated hPD-L1-hFc. (In general: An ELISA detects its analyte on a solid surface through an enzyme-linked reagent.)
As for B1, the “% blocking at 200 nM antibody” value worked out at 67% and the IC50 worked out at 3.3 nM.

As to B2, the “% blocking at 200 nM antibody” value came out at 98%.

B3: the “% blocking at 200 nM antibody” value turned out to be 78%.

B4: the “% blocking at 200 nM antibody” value was 74%.

With B5, the “% blocking at 200 nM antibody” value is 99%.

The target in another assay is T2, full length human PD-1 on HEK293/hPD-1 …. The assay is described as follows: FACS, 100 nM mAb, HEK293/hPD-1 cells.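 Further: antibodies incubated with cells for 15-30 min on ice, bound antibody detected through a secondary F(ab′)2 by flow cytometry, with parental HEK293 cells tested in parallel.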 For orientation: In flow cytometry, cells or beads pass a laser one at a time.
B1 yielded an MFI of 7200 MFI.

On to B2, for which the MFI was 10100 MFI.

B6 showed an MFI of 49800 MFI.

On to B3, for which the MFI was 9140 MFI.

As to B4, the MFI came to 23100 MFI.

Turning to B5, the MFI was 9920 MFI.

Another assay concerns the target T1, monkey PD-1 with mFc. The assay is described as follows: SPR, captured mAb, 37 C.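 Further: Real-time Biacore surface plasmon resonance biosensor readout of PD-1 reagent binding to purified anti-PD-1 monoclonal antibodies.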
For B1, the “100 nM Monkey PD-1-mFc Bound (RU)” value came out at 84 RU, binding was characterised by a dissociation constant (Kd) of 2.29 nM, the koff worked out at 0.00113 s⁻¹ and the kon came to 494000 M⁻¹ s⁻¹. Further, the t1/2 stood at 10 min.

As to B2, the “100 nM Monkey PD-1-mFc Bound (RU)” value was 81 RU, the Kd was 2.44 nM, the koff came to 0.000749 s⁻¹ and the kon was 307000 M⁻¹ s⁻¹. The t1/2 worked out at 15 min.

For the molecule B3, the “100 nM Monkey PD-1-mFc Bound (RU)” value came to 40 RU, the Kd was 3.17 nM, the koff is 0.000885 s⁻¹ and the kon was 279000 M⁻¹ s⁻¹. The same molecule displayed a t1/2 of 13 min.

For the molecule B5, the “100 nM Monkey PD-1-mFc Bound (RU)” value was 40 RU, binding was put at a Kd of 1.7 nM, the koff worked out at 0.000623 s⁻¹ and the kon was 367000 M⁻¹ s⁻¹. The molecule also displayed a t1/2 of 19 min.

A further assay addresses T1, monkey PD-1 with mFc. The assay is described as follows: SPR, captured mAb, 25 C.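 Further: purified anti-PD-1 antibodies tested on Biacore 4000 or T200 instruments, rate constants obtained via 1:1 binding model fit, with KD as kd/ka and half-life as ln2/(60·kd).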
On to B1, for which the “100 nM Monkey PD-1-mFc Bound (RU)” value came out at 115 RU, the Kd amounted to 0.754 nM, the koff was determined as 0.000184 s⁻¹ and the kon was found to be 243000 M⁻¹ s⁻¹. For the same molecule, the t1/2 was found to be 63 min.

As for B2, the “100 nM Monkey PD-1-mFc Bound (RU)” value was 95 RU; the affinity, expressed as Kd, was 0.818 nM; the koff is 0.000166 s⁻¹; the kon turned out to be 203000 M⁻¹ s⁻¹. The molecule further gave a t1/2 of 70 min.

On to B3, for which the “100 nM Monkey PD-1-mFc Bound (RU)” value worked out at 83 RU, the Kd amounted to 1.05 nM, the koff turned out to be 0.000172 s⁻¹ and the kon was 163000 M⁻¹ s⁻¹. This molecule also returned a t1/2 of 67 min.

For B5, the “100 nM Monkey PD-1-mFc Bound (RU)” value was found to be 78 RU; the affinity, expressed as Kd, was 0.46 nM; the koff turned out to be 9.96e-05 s⁻¹; the kon is 216000 M⁻¹ s⁻¹. For the same molecule, the t1/2 was 116 min.

A further assay addresses T3, recombinant human PD-1 dimer expressed …. Description: competition ELISA: 1.5 nM hPD-1-mFc to coated hPD-L1-hFc; * below theoretical bottom 7.5E-10 M.
On to B2, for which the concentration for half-maximal inhibition (IC50) amounted to 0.51 nM.

As to B3, the IC50 worked out at 0.2 nM.

Consider B4, for which the IC50 was 0.22 nM.

Take B5: the IC50 amounted to 0.62 nM.

Another assay addresses PD-1 chimera: extracellular domain of human PD-1 with trans-membrane and cytoplasmic domains of human CD300a, … (human, UniProt Q9UGN4 181-299, limits assumed). Description: cell-based or functional assay.
On to B1, for which the “Emax mean [%] @ 100 nM” value came out at 138%.

Turning to B2, the “Concentration (M) of Antibody at 150% activation” value is 2.62e-09 M and the “Emax mean [%] @ 100 nM” value was 202%.

With B6, the “Emax mean [%] @ 100 nM” value was 121%.

With B3, the “Concentration (M) of Antibody at 150% activation” value was 1.11e-08 M and the “Emax mean [%] @ 100 nM” value amounted to 163%.

On to B4, for which the “Concentration (M) of Antibody at 150% activation” value was 4.72e-09 M and the “Emax mean [%] @ 100 nM” value stood at 189%.

Take B5: the “Concentration (M) of Antibody at 150% activation” value was 1.2e-09 M and the “Emax mean [%] @ 100 nM” value was 227%.

The next assay deals with T2, full length human PD-1 on HEK293/hPD-1 …. The assay is described as follows: FACS dose response, HEK293/hPD-1 cells. This is another data set of the same source.
As for B6, the EC50 worked out at 4.81 nM and the “Max Geom. Mean MFI @ 100 nM” value turned out to be 14100 MFI.

In the next assay the target is T4, recombinant human PD-1 expressed with a C-terminal human IgG1 Fc tag (human).
T4 construct: also called hPD-1-hFc; hPD1-hFc
Description: SPR Biacore 3000: 100 nM hPD-1.hFc + 500 nM mAb to captured hPD-L1.mFc.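 Further: inhibition study with anti-PD-1 mAbs, SPR responses tracked in real time and read at the close of each step.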
Take B2: the “% Blocking” value was 105% and the “binding of the mixture (RU)” value is -5 RU.

Regarding B3, the “% Blocking” value was determined as 105% and the “binding of the mixture (RU)” value was -5 RU.

Consider B5, for which the “% Blocking” value was determined as 104% and the “binding of the mixture (RU)” value was -4 RU.

For the next assay, the target named is T5, dimeric biotinylated human PD-1 protein with a C-terminal human Fc tag (human, biotinylated (sites not given)).
T5 construct: also called biot-hPD-1-hFc
The assay is described as follows: competition ELISA: 200 pM biot-hPD-1-hFc to coated hPD-L1-mFc.
Take B2: the “% blocking at 50 nM antibody” value stood at 96%.

In the case of B6, the “% blocking at 50 nM antibody” value came out at 60% and the IC50 worked out at 1.3 nM.

Regarding B3, the “% blocking at 50 nM antibody” value turned out to be 96%.

For B4, the “% blocking at 50 nM antibody” value is 100%.

B5: the “% blocking at 50 nM antibody” value is 95%.

The target in the next assay is T2, full length human PD-1 on HEK293/hPD-1 …. Description: FACS, 100 nM mAb.
For B1, the “ratio of MFI HEK293/hPD-1 to HEK293 parental cells” value turned out to be 70.8.

Take B2: the “ratio of MFI HEK293/hPD-1 to HEK293 parental cells” value amounted to 69.

In the case of B6, the “ratio of MFI HEK293/hPD-1 to HEK293 parental cells” value stood at 168.

Consider B3, for which the “ratio of MFI HEK293/hPD-1 to HEK293 parental cells” value worked out at 84.

On to B4, for which the “ratio of MFI HEK293/hPD-1 to HEK293 parental cells” value was determined as 75.7.

Take B5: the “ratio of MFI HEK293/hPD-1 to HEK293 parental cells” value turned out to be 91.7.

In the next assay the target is T5, dimeric biotinylated human PD-1 protein …. The assay is described as follows: competition ELISA: 200 pM biot-hPD-1-hFc to coated hPD-L1-mFc; * below theoretical bottom 1.0E-10 M.
As to B2, the IC50 was 0.066 nM.

In the case of B3, the IC50 came out at 0.082 nM.

For the molecule B4, the IC50 was found to be 0.065 nM.

B5 returned an IC50 of 0.08 nM.

Another assay addresses T3, recombinant human PD-1 dimer expressed …. The assay is described as follows: competition ELISA: 100 pM hPD-1-mFc to coated hPD-L2-hFc.
For the molecule B1, the “% blocking at 100 nM antibody” value came to 98% and the IC50 was 0.14 nM.

The target in a further assay is T6, recombinant human PD-L1 expressed with a C-terminal mouse IgG2a Fc tag (human).
T6 construct: also called hPD-L1-mFc; hPD-L1.mFc
Description: SPR Biacore 3000: 500 nM mAb alone (no hPD-1.hFc) over captured hPD-L1.mFc surface, control.
For the molecule B2, the “500 nM of anti-PD-1 monoclonal antibody (RU)” value (“500 nM” for short) was -4 RU.

For B3, the “500 nM” value was -5 RU.

B5: the “500 nM” value is -3 RU.

As a reminder, the EC50 is the concentration needed to bring the measured effect to its halfway point. Usually IC50 stands for the point on the concentration scale where inhibition reaches its midpoint. As usually defined, the Kd is the equilibrium constant for the complex coming apart. In general, koff refers to the rate constant with which the complex falls apart. Usually kon stands for a measure of how fast the partners come together.
